From patent CN111072775A (OLYMVAX BIOPHARMACEUTICALS INC; UNIV ARMY MEDICAL, dated 2020) come the findings set out here.

This test has as its target T1, MntC蛋白 (锰离子转运蛋白C亚单位, 重组MntC蛋白) (金黄色葡萄球菌 (Staphylococcus aureus)).
T1 construct: Recombinant MntC used as immunogen and as ELISA coating antigen; also called MntC重组蛋白; MntC蛋白标准品
T1 chain: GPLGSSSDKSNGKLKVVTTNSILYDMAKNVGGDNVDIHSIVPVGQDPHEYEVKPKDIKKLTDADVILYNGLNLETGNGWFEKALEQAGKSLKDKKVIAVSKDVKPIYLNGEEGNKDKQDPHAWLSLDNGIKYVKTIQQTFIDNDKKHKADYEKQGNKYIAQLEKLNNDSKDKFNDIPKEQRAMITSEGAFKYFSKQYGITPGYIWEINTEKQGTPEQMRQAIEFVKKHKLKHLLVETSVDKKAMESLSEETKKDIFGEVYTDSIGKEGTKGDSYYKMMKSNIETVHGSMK
The test can be described thus: ELISA on MntC with HRP-labelled antibody.

B1: HRP标记的抗体3F6 (antibody, V domains shown)
VH: VQLQQSGPSLVKPSQTLSLTCSVTGDSITNGYWNWIRKFPGNKLEYMGYISYSGTTYYNPSLKSRISITRDTSKNQYYLQLNSVTTEDTATYYCSRIRPYRHLGFDYWGQGTTVTVSS
VL: DIVMTQTPASLAVSLGQRATISCKASQSVDYGGDSYMNWYQQKPGQPPKLLIYAASNLESGIPARFSGSGSGTDFTLNIHPVEEEDGATYYCQQSNEDPWTFGGGTKLEIK
modifications: HRP label by the sodium periodate oxidation method; chain and site not stated
notes: also called HRP标记抗体 (3F6)
B1: the binding result is recorded as “binds”.

B2: HRP标记的抗体3C10 (antibody, V domains shown)
VH: VKLQESGPSLVKPSQTLSLTCSVTGDSITNGYWNWIRKFPGNKLEYMGYISYSGTTYYNPSLKSRISITRDTSKNQYYLQLNSVTTEDTATYYCSRIRPYRHLGFDYWGQGTTVTVSS
VL: DIVMTQSTASLAVSLGQRATISCKASQSVDYGGDSYMNWYQQKPGQPPKLLIYAASNLESGIPARFSGSGSGTDFTLNIHPVEEEDGATYYCQQSNEDPWTFGGGTKLEIK
modifications: HRP label by the sodium periodate oxidation method; chain and site not stated
notes: also called HRP标记抗体 (3C10); 酶结合物(抗体3C10)
B2: the binding result is reported as “binds”.
